We go through one molecule from patent publication US20100129369A1 (Eli Lilly, published 2010).

In one experiment the target is T1, RON-ECD-Fc (human, UniProt Q04912 25-957).
T1 construct: extracellular domain; Bought reagent; not shown: Fc part of the bought fusion
T1 sequence (looked up): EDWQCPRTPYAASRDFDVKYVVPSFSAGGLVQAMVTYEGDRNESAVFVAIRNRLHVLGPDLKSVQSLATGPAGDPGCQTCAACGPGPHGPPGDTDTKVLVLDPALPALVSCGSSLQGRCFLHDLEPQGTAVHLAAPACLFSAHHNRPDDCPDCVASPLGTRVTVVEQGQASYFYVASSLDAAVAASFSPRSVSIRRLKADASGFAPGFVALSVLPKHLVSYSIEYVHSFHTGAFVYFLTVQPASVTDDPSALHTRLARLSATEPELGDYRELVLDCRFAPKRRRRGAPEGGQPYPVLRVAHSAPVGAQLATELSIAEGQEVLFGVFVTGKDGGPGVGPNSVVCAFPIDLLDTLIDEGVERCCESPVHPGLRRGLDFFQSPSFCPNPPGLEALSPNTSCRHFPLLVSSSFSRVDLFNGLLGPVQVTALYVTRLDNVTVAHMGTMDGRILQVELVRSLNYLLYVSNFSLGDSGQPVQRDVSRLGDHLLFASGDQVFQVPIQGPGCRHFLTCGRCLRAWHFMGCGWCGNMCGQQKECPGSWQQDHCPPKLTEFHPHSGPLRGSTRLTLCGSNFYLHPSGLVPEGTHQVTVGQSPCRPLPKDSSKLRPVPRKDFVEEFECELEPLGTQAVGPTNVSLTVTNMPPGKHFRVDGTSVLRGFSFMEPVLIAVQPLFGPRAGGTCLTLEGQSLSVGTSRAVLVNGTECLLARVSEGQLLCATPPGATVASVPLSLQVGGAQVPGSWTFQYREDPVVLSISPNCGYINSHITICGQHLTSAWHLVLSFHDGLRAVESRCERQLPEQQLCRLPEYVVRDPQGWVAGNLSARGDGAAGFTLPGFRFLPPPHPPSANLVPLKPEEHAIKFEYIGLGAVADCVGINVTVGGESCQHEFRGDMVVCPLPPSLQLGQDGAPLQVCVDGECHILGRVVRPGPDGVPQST
As to the kind of experiment: ELISA, coated ECD-Fc, antibody 0.002 ng/mL.

For the next experiment, the target named is T2, Human c-Met-Flis-Fc ECD (human).
T2 construct: also called human c-Met extracellular domain (ECD)-Fc-Flis fusion; Human cMet-ECD-Fc-Flis
T2 sequence (chain, as listed by the source limits assumed): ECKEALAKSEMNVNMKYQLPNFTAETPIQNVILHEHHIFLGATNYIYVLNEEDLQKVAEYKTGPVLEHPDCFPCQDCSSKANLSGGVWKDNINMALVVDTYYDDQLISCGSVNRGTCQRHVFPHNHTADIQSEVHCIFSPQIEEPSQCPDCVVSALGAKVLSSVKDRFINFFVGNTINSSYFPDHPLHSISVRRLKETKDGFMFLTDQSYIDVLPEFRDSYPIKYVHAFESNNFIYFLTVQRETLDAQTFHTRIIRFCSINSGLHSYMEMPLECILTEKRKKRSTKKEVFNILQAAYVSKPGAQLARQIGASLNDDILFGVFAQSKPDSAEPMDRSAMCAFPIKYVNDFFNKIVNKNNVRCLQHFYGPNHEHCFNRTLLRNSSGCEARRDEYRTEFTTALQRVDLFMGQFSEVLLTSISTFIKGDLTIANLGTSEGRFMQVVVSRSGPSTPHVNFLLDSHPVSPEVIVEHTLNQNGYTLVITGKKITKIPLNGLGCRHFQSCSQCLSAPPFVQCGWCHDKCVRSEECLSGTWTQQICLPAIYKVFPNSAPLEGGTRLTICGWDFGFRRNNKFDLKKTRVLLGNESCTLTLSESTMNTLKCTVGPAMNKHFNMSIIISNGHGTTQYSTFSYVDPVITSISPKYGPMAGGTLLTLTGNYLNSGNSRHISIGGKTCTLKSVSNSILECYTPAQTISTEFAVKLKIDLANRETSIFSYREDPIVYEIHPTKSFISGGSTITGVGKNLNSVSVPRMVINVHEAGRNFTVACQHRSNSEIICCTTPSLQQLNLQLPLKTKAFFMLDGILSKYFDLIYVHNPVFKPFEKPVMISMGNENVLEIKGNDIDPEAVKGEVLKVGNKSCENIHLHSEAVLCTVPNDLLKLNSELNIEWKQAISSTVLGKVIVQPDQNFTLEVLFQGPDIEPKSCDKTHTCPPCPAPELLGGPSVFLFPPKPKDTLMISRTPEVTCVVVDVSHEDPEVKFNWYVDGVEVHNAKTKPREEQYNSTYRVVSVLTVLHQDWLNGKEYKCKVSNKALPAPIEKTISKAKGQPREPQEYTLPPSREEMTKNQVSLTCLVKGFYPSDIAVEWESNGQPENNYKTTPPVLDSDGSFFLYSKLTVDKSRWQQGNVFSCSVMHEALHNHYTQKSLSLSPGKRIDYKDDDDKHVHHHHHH
As to the kind of experiment: ELISA, coated ECD-Fc, antibody 0.002 ng/mL. (In general: In an ELISA, binding on a coated surface is turned into a signal by an enzyme label.)

B1: C8-6 (antibody, human IgG2, kappa, V domains shown)
VH: QVQLVQSGAEVKKPGASVKVSCKASGYTFTDYYMHWVRQAPGQGLEWMGRVNPNRGGTTYNQKFEGRVTMTTDTSTSTAYMELRSLRSDDTAVYYCARTNWLDYWGQGTTVTVSS
VL: DIQMTQSPSSLSASVGDRVTITCSVSSSVSSIYLHWYQQKPGKAPKLLIYSTSNLASGVPSRFSGSGSGTDFTLTISSLQPEDFATYYCIQYSGYPLTFGGGTKVEIKR
notes: Called IgG4, kappa; also called Mab C8-6
On to B1, for which the figures for the “Average A450 nm” value in the experiment with RON-ECD-Fc and in the experiment with Human c-Met-Flis-Fc ECD were 0.106 A450 nm and 0.326 A450 nm, respectively.
